Experimental data as given in the domain aggregation screens of Martell et al. (2025).

Experiment: soluble fraction after stress (log2 fold change); higher = more stays soluble; pooled small domains, quantitative proteomics
Conditions: stress: 75 degC
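Also: 20 min heating vs room temperature control held 20 min.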

HMANADVVLVDLDKEYTVDAAKFHSVVKHSPFNGFAVKGAPVLTIVRGTVVAENGEVVGQPGHSKMVRP
soluble fraction (log2): 0.108

HMANEGWDIYKLDIRNHKQPNGEYYSEKEIQSTINNTFGKGSFNVDWKKYEKDKEYREKTNYYYFQAKYFV
soluble fraction (log2): -0.903

HMANHIAAIHVLKSKLQMSDSDYRVLITGLTQKASTKDMSDIERQRVRDHMQGLAERMGVVK
soluble fraction (log2): -0.66

HMANIAVTIPTGSSGDRIADILLQAGLIKDKQDFNQAVIAAGAEGKLRAGYFVIPSNATPAEIISILT
soluble fraction (log2): -0.521

HMANILKHKNKDGVITSYTIRVYHGYDEAGKRLRPYTMNYKPAPNMTARQIEKELNRQAVQFEEQIKNGYA
soluble fraction (log2): -0.892

HMANKLTSTNLAKQHKMGLSEMYAELMNSGYLIEKDGKYELTPLGISIGGESKPNRYKKGEFYFLWPSDIS
soluble fraction (log2): -0.618

HMANLLNLREIPVANIRPELTMFLIPGENITQAFQTIRDQVVFTNKRLIVANVQGLTGKKVSYTSYPY
soluble fraction (log2): -0.38

HMANPFQELTERELDVLRQVAAGKNNREIAEALFIGEKTVKTHISNILSKLHLADRTQAAVYAWQQGMM
soluble fraction (log2): -0.223

HMANTVVMPNLLGKTMTEAKIELKELGIDITLKGSESSSKYSAGQIMEQNIAEGTKVEVGSSVEVTIAGS
soluble fraction (log2): -0.579

HMAPAPDEAFAEFVRSSAPSLTRTAWLLTGDRGHAQDLVQNAYAKTLQAWGRLDAEGALAYTRRAVIT
soluble fraction (log2): 0.174

HMAPDGIEDKEGWLKVLPMITNLSIQMQNLQARGMDYEHIRNLLHETLLRYDDRIDSNLFIPNV
soluble fraction (log2): -0.059

HMAPDNDELEKAKKIVNAFIEAKAKGLGVVSLGTKMIDAPVVKRAQKIIDQTIVMGKLSLNWQDEFFN
soluble fraction (log2): -0.208

HMAPEVTVHDGSIVVRGHVGGVTVYDESGRQIASVQSRGAVAIPVPAGHTYLYIVKPEGKPAIKVRAAH
soluble fraction (log2): -0.265

HMAPKSALKIIEQISNNPRATMTDLANLTGYSRRWVAQTIKRLQEENIIKRIGSDKSGYWEIIG
soluble fraction (log2): -0.807

HMAPLATLEADGNGAVKLPNLAGHAIREVAAALGGANLALIPIGSGTSWKQNPAPGTILHKGDTVTVYF
soluble fraction (log2): 0.153

HMAPLEPLTDRETEMLVRLANGASNKVMARESFVSENTIKFHLKNIYAKLGVTSRLQAIAAARNQGLI
soluble fraction (log2): -1.31

HMAPLRTQYVNVNYANAAEIKTLISGADKEVGSLLSERGSVVVDKRTNTLIIQDTQARLNDIGDLIEQLD
soluble fraction (log2): 0.144

HMAPMYGEFENVRLTDAQLDKLNARFPPEQVQREIEALSGYMRSKGKRYADHYATLLNWLRRDFPP
soluble fraction (log2): -0.238

HMAPNVEENSKLIGEIGMTLTPLRPSGIATINNRRVDVVSNGDFIDQDERVMVKRVQGARVVVIPV
soluble fraction (log2): 0.168

HMAPPDFTTFMRNYQDMVYSTAVRLIGNETQAEDIAQEVFIKAHAHFENLRTSPSAGGWLKTVATNLSIN
soluble fraction (log2): -1.2

HMAPQAETLLRQVMALPSKDRAVLYLHYYEGFSTREVGDMLHISQSAVTTRLLRARKKLKEIL
soluble fraction (log2): -0.122

HMAPRLTERERQVLQLIAEGLTSMQIGDRLHIAASTVDVHRRNLMRKLDLHNVADLTRYAITQGISP
soluble fraction (log2): -0.792

HMAPRQDIAYYTVKPGDTVLAIAEKFGLQPETLMWSNSIIEQNPDRLSIGDELRILPVDGVLHVVK
soluble fraction (log2): 0.129

HMAPRSSAVYFYLSQVALKKNQPRKAEAMARRGLTVSQDANRRRALWQLILRSGQAQNNTRVIREAQQAL
soluble fraction (log2): -0.0212

HMAPSLSEYAYEEIKHAIERGVYPPGAKLITQEIADRLGISRTPVVAAVNRLTAEGYADAVPQHGIFVK
soluble fraction (log2): -0.073

HMAPVLTRREHEVLHLLTDGLDNRTIARNLFISEATVKFHLHNIMGKFGVHRRAALVSTALRG
soluble fraction (log2): -2.22

HMAPVTPEERAQAMEEYKAMVTIEGYTPPKNIIEQNYKRGLWSETMLNMAVTKGAITEAEKLEIMN
soluble fraction (log2): 0.463

HMAQIVNLPRKNVNGASYYYYEVQPKETIYSISRKLGVSGAEIQRHNPSVADGLKIGQVLYFPAEG
soluble fraction (log2): -0.0642

HMAQLPADMSKVKSADISEAQLQEFIQKATSSGYNMNQIEMEFAKRGMSENEVSLLRPRLRRLMAS
soluble fraction (log2): -0.0413

HMAQLSDDEQAIIDTITRRGDATMSELIASVNVSTPRLMSMLIDMEFRSLITALPGGRYQIRLIN
soluble fraction (log2): -1.54

HMAQLTPREREVLVLIAEGKSNKEIADQLNIGVRTIETHRERIMRRLNIHSVAGLTKYAIANGLVTL
soluble fraction (log2): -0.36

HMAQPIPSGADIRAAREAAGMTLRRFAEYIAGPDFSTWSRYETGKPIRVKNISPEVWQRVRKFIAQNKG
soluble fraction (log2): -0.33

HMAQQEMEIIPLRHRQVEQVMPTLRPLLEPGAALSGMNNQLILRASRKNREEIKQALAVIDT
soluble fraction (log2): 0.0427

HMAQSEDLMVMAQRILGGPEAQSFFQAEATRQGLAGFLPEPIPDFLQRLERKLSGSVGSATAHAMVAQTMG
soluble fraction (log2): 0.0569

HMAQSLAQKINNYILTNRSSIANVAKSIGYSRTTVSRYLAGKYDSDPTDLENKLAEFLAHETGE
soluble fraction (log2): -0.253

HMAQTEIIRVTKDIKKGDAITADKFEKVKVGAYNLPGNVVKNADELKGKFAAADLVRGDYILTSKLTDNP
soluble fraction (log2): 0.183

HMAQVRSTVERRENGTYTVELNLNDDVDNVMRLQLMVATKEMAEDLAQRFQKNPEQVYSQLVTALYG
soluble fraction (log2): -0.723

HMAQVSDDAELEKWADTAIDEHPKPVEEYRAGNAASINFLMGQVMKMSRGKANPGAVMQILKQKLD
soluble fraction (log2): 0.0191

HMAQVSDTGAIAKIVADAIAANPKQVQQYLDGNEKVLMYLVGQVMKLSKGKANPPMVIQLLKEQLG
soluble fraction (log2): -0.125

HMAQVSDTGELEGVVDGVLAANAKSVADFQAGKENAFQYLIGQVMKETKGKANPEVVATLLRTKLS
soluble fraction (log2): -0.523

HMARAGKLAQDMAVWTKETMLNTERNFISLRHFKRELLRRTLAPGESEQTVRAMEEAGYIQVKDGLVFPIK
soluble fraction (log2): -2.43

HMAREQISVSQMVRDVRDGQVKNIEVLGQELRLSYADGSQKVTRKEEGQQALEILFASDIDLAALDLEVQ
soluble fraction (log2): -0.0792

HMARIDYHAMDSDDLSFSEGELLEIYDKPGSFWWKGRSLVSGDEGDIPS
soluble fraction (log2): -0.0708

HMARKFQKDTGYLNKKERTWLLDFFPSLKKYLYTGAYIRSIIVVESNVTYTDKELPSNYTFTYKFA
soluble fraction (log2): -0.522

HMARKISVEALGKYFPNSPMLAAAVAVTGVMKKDEFIHEMRASYKHKFAKKPEVIDGNMKALTMTFEA
soluble fraction (log2): 0.11

HMARNHYETLGVGRTATGDEIRKAYRSEAQKHHPDRGGDAERMQSLNEARDTLLDDQARAAYDQELDL
soluble fraction (log2): 0.154

HMARPLLSPREQDVLALIARGFSYSEVARLQAVTVHTIRTHIRNLYAKLSVHSKTEAVFEATRMGLLP
soluble fraction (log2): -1.94

HMARRKRDIDSDINVKVFEHWLDNLDSASRESFSAFAEETFSPIQVYLYAKFLGYESSIIAVDHWVAVAYP
soluble fraction (log2): 0.135

HMARSVAEFVERGRSGGSLERPKLQRMLEYIQDRPVDFVIVHKIDRLARNRADDAAITKTIRGAGAYLVST
soluble fraction (log2): 0.1

HMARTGSEELVGALATVREPLAPWGQVFVQGALWRARSADGGPVDAGQQVVVRAVEGLTLVVEPRD
soluble fraction (log2): -0.143

HMARYSMLEEQLLQLINKHGTMSTPKLVEATGAPRSTVTYQLRKLLESGTIERTQPARSPKQSYRIKS
soluble fraction (log2): -0.416

HMASATGVVTAASLNVRSGAGTNYSVVNTLAKGTKVTVLNTADGWYEIEATVNNEKITGYVSATYIAMD
soluble fraction (log2): -0.538

HMASLSRRELEVLELLALRLTVKEVAERLVISELTAKRHTSNIYQKLGVNRRRDALAAAQARGLLGAR
soluble fraction (log2): -3.18

HMASRSQTEIMHLLSSGLPKHELVTALQSLLGISKPTAYKYLSQDVSIAYDHMVKILEYPPFQRVLYQ
soluble fraction (log2): -1.93

HMASSVKAPLPGVILDIKVKVGDTIKNGDTVVILEAMKMENNIHSDKDGVVKSIEVNKGDSVLEGATLLTI
soluble fraction (log2): 0.33

HMASVDDILDRFKQAAKVTTDADLAKVLGLSRQSIAAARLRAKIPASWFPKMSSLFNISTEWLYRG
soluble fraction (log2): -1.18

HMASVRPVAPPDPKTHTRLTYRIRRGDTLERIGRRYRVSIAEIQAWNTLRDPGDILAGQRLVIWIPTS
soluble fraction (log2): -2.33

HMATAPQIRAIYALGSKLGINQNSREDNLHQLVYSITGKESIKGLTNYEAARVQSELANMERK
soluble fraction (log2): 0.323

HMATEPLQPRVEVLGSTLATTNGARIVGVYDMSGREVSATQLSKGVYIVKVTNGSVTATQKVFI
soluble fraction (log2): -0.477

HMATETMGMIIRRLRREHGLTQEELAASIGVTAQAVSKWEKDLGMPDISQIVPLAGAFNVRTDVLFGLE
soluble fraction (log2): -2.65

HMATEWLSSKEAAQRLGVSAATLYAYVSRGLLRSEGSSGQRERRYRADDVAQLRRRREVGRKAESIAASTL
soluble fraction (log2): -1.31

HMATHWHITPNPNNGKFLISGLMQDDSFHLMDASGQWLRQLRTVNQELDLDLQPGVYFLKDNSGSVMKFVV
soluble fraction (log2): -1.13

HMATIADILAEHKDKEGPLLPVLHDVQKMFGHVSEEAMREIAQALNLTRAEVYGVVSFYHDFRKEVE
soluble fraction (log2): -1.46

HMATIIGSIGIVTQKVGLTGVPGRVYVNNESWAAISANGKEIENDTQVIVVKIDGATLIIEKKG
soluble fraction (log2): -2.22

HMATKEQIKRIYGLGAGLGIVGKDKDDMLHELIFSITGKDSVKQLDDSEFKAVQAELINRMKLA
soluble fraction (log2): 0.0958

HMATLAVPNLMRLSQGEAMALIRLSGLSIGNVSIDSSMGSPRVIRQEPQASGGMLVLTQGDQVHLWLEGP
soluble fraction (log2): -3.75

HMATLQLPVPKITLYPGELIRSDHLTDQRFNARALYHSAVYKSREDIVGKVARRTLLPGQPIPVNALR
soluble fraction (log2): -1.07

HMATPKRGFRKQLAPLVQSGTITREEAGELSRSSGDATALRTKIGELMKAGKLTRKEAGELYSDAFPENA
soluble fraction (log2): 0.145

HMATPYISMAGIGKSFGPVHALKSVNLTVYPGEIHALLGENGAGKSTLMKVLSGIHEPTKGTITINNIN
soluble fraction (log2): 0.458

HMATRAEQMAKTHQAILDTARELFLRNGYDATSTRDIANAIGITQPALYHHFKDKEVIFLAVI
soluble fraction (log2): -0.107

HMATSLTEQEKLIFGLLKKQSPIELSSLKEQAGLSNKKWDKAIKGLSTQQLAKVTKTENGLFVHLLQ
soluble fraction (log2): 0.00913

HMATTAGIEKYLGSGLIKGIGPIYAKKIVRKFKEDTIRIIDEEPDRLLEVEGIGQKRLEIIKQAWQQQKE
soluble fraction (log2): -0.651

HMATVHVDGIQYDFSSPEQAKEFAYKWAKKHNLTWEVHGETIHIK
soluble fraction (log2): -0.225

HMATYNEVLKRLIEERKRLGLSQQEMARLVHITQSNYSKVEKGLHRLSYEELKYLSKANVDIFYILT
soluble fraction (log2): -0.0786

HMAVANEAIANINMKEVKQAIHNLPEIFKNPFLLYFDGYKYHEIAEMLDEPLGTIKSRIHFARKLLKSHI
soluble fraction (log2): -0.889

HMAVDVNKATAAELDSIKGIGPAISAKILEEKKKGGNFKDWNDLVTRVSGVGEANAAKFSSEGLTVGGAS
soluble fraction (log2): 0.0168

HMAVELPLETTLDIVRKYARNQEVDRRAERVEAVSAEALQTLAPRGTKLASEIVEQAKTQVLEELA
soluble fraction (log2): 0.476
